Source: paper PMC8490154, “Mass-sensitive particle tracking to elucidate the membrane-associated MinDE reaction cycle” (Nature Methods, 2021)
“And” between values parts separate entries of the source, which are not always exact repeats. Equal values may be shown once. Read-outs that look alike come from different tables or passages of the source.

Experiments:
MinD (Escherichia coli) [1] = molecular target: MinD (Escherichia coli) (UniProt P0AEZ3); test: mass-sensitive particle tracking (MSPT, iSCAT) on a supported lipid bilayer; MinD or MinD D40A alone, 50-200 nM, 0.5 mM ATP, Min buffer, SLB of 70 mol% DOPC / 30 mol% DOPG, room temperature (23 ± 2 °C); particle densities 0.03-0.8 µm^-2; monomers (33 kDa) not quantitatively detectable
MinD (Escherichia coli) [2] = molecular target: MinD (Escherichia coli) (UniProt P0AEZ3); test: as above; remark: listed apart in the source
[3] = molecular target: the molecule itself; test: mass-sensitive particle tracking (MSPT, iSCAT) on a supported lipid bilayer; co-reconstitution of equimolar MinD and MinE, 50-200 nM each, 0.5 mM ATP, Min buffer, SLB of 70 mol% DOPC / 30 mol% DOPG, room temperature; particle densities 0.1-0.8 µm^-2
[4] = molecular target: the molecule itself; test: mass-sensitive particle tracking (MSPT, iSCAT) on a supported lipid bilayer; MinD or MinD D40A alone, 50-200 nM, 0.5 mM ATP, Min buffer, SLB of 70 mol% DOPC / 30 mol% DOPG, room temperature (23 ± 2 °C); particle densities 0.03-0.8 µm^-2; monomers (33 kDa) not quantitatively detectable

“MinD (from UniProt P0AEZ3 1-270) (natural protein)” was tested, and the stoichiometry N (MinD (Escherichia coli) [1]) was 2 and the stoichiometry N (MinD (Escherichia coli) [2]) was 3 and 4.

B1: MinE (natural protein, Escherichia coli, UniProt P0A734 1-88, looked up)
chain: MALLDFFLSRKKNTANIAKERLQIIVAERRRSDAEPHYLPQLRKDILEVICKYVQIDPEMVTVQLEQKDGDISILELNVTLPEAEELK
notes: MinE of the Escherichia coli Min system; A purification tag is probably present (surmise)
B1: binds [3].

B2: MinD D40A (natural protein, Escherichia coli, UniProt P0AEZ3 1-270, looked up)
chain: MARIIVVTSGKGGVGKTTSSAAIATGLAQKGKKTVVIDFAIGLRNLDLIMGCERRVVYDFVNVIQGDATLNQALIKDKRTENLYILPASQTRDKDALTREGVAKVLDDLKAMDFEFIVCDSPAGIETGALMALYFADEAIITTNPEVSSVRDSDRILGILASKSRRAENGEEPIKEHLLLTRYNPGRVSRGDMLSMEDVLEILRIKLVGVIPEDQSVLRASNQGEPVILDINADAGKAYADTVERLLGEERPFRFIEEEKKGFLKRLFGG
notes: ATPase MinD of the Escherichia coli Min system with D40A (impaired ATP hydrolysis); A purification tag is probably present (surmise); also called D40A mutant; MinD mutant (D40A)
With B2 the “stoichiometry N” value [4] was 2 and 4.
